Laboratory results as given in US20160024487.

What was measured:
[1] = system: T1, Lys(Dnp)-ATNATX4X3PRIVGG-Lys(Abz), X4 = G, X3 = F
T1 sequence: KATNATGFPRIVGGK

[2] = system: T2, Lys(Dnp)-ATNATX4X3PRIVGG-Lys(Abz), X4 = T, X3 = S
T2 sequence: KATNATTSPRIVGGK

[3] = system: T3, Lys(Dnp)-ATNATX4X3PRIVGG-Lys(Abz), X4 = S, X3 = I
T3 sequence: KATNATSIPRIVGGK

[4] = system: T4, Lys(Dnp)-ATNATX4X3PRIVGG-Lys(Abz), X4 = N, X3 = K
T4 sequence: KATNATNKPRIVGGK

[5] = system: T5, Lys(Dnp)-ATNATX4X3PRIVGG-Lys(Abz), X4 = S, X3 = Q
T5 sequence: KATNATSQPRIVGGK

[6] = system: T6, Lys(Dnp)-ATNATX4X3PRIVGG-Lys(Abz), X4 = E, X3 = A
T6 sequence: KATNATEAPRIVGGK

[7] = system: T7, Lys(Dnp)-ATNATX4X3PRIVGG-Lys(Abz), X4 = E, X3 = H
T7 sequence: KATNATEHPRIVGGK

Human plasma purified Factor Xa
FXa kcat/KM [1]: 35 M⁻¹ s⁻¹ | FXa kcat/KM [2]: 16 M⁻¹ s⁻¹ | FXa kcat/KM [3]: 55 M⁻¹ s⁻¹ | FXa kcat/KM [4]: 14 M⁻¹ s⁻¹ | FXa kcat/KM [5]: 45 M⁻¹ s⁻¹ | FXa kcat/KM [6]: 4.3 M⁻¹ s⁻¹ | FXa kcat/KM [7]: 7.7 M⁻¹ s⁻¹
